Biological target: PD-L1 on CHO cells expressing human PD-L1 (CHO-PDL1) (human, UniProt Q9NZQ7 19-290)
Assay: flow cytometry cell binding; CHO-PD-L1 cells

PD-L1 on CHO cells expressing human PD-L1 (CHO-PDL1), sequence (Q9NZQ7 19-290): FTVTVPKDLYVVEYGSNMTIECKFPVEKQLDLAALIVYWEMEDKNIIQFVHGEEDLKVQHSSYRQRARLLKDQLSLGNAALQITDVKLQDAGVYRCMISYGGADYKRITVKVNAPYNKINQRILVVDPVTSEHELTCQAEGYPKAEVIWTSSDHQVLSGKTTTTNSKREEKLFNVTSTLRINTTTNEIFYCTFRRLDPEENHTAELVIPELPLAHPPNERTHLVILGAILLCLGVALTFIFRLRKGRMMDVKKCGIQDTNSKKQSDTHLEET

EC50: 0.0511 nM
B1: IMM2515 (antibody, V domains shown)
VH: QVQLVQSGAEVKKPGASVKVSCKASGYTFTSNWMHWVRQAPGQGLEWMGMIHPNSGSSNYNEKFKSRVTMTRDTSTSTVYMELSSLRSEDTAVYYCARSYYGSSPYYFDYWGQGTLVTVSS
VL: DIQMTQSPSSLSASVGDRVTITCRASQDIINYLNWYQQKPGKAPKLLIYYTSRLHSGVPSRFSGSGSGTDFTFTISSLQPEDIATYYCQQGDTLPWTFGQGTKVEIKR
